Laboratory results reported in article PMC10986958 (PLOS Pathogens, 2024).

Columns and labels:
Experiment in all cases: ITC
Settings in all cases: both partners purified
[1] = target: LC3A (residues 1-121 of human LC3A) (human, UniProt Q9H492 1-121)
[2] = target: T1, GABARAP (residues 1-117 of human GABARAP) (human, UniProt O95166 1-117)
[3] = target: T1, GABARAP (residues 1-117 of human …); remark: listed apart in the source
[4] = target: T2, LC3B (residues 1-125 of human LC3B) (human, UniProt Q9GZQ8 1-125)
[5] = target: T3, GABARAPL1 (residues 1-117 of human GABARAPL1) (human, UniProt Q9H0R8 1-117)
T3 construct: also called GABARPL1
T3 sequence (Q9H0R8 whole entry, the tested form may be a part): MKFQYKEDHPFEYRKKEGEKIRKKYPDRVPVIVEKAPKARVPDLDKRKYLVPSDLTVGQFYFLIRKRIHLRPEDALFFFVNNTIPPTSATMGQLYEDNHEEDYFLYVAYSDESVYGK

[6] = target: T2, LC3B (residues 1-125 of human LC3B); remark: listed apart in the source
[7] = target: T3, GABARAPL1 (residues 1-117 of human …); remark: listed apart in the source

T1 sequence (O95166 whole entry, the tested form may be a part): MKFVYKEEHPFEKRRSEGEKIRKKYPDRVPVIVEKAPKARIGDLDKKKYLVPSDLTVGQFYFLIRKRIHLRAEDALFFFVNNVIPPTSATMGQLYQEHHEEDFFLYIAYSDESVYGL

RLRFSDFYNVGEFPYRVGLG [NSs2 (residues 53-72 of RVFV NSs)] was tested. Which Kd [1] did it give?
Its Kd is over 100 µM.

What about the Kd [2] of the same binder?
The Kd was over 100 µM.

DYFPVISVDLQSGRR [NSs1 (residues 2-16 of RVFV NSs)] was tested. Which Kd [1] did it give?
The Kd was over 100 µM.

What about the Kd [2] of the same binder?
Its Kd is over 100 µM.

How did the Kd [1] turn out when GRNNWIPVIPPIPDVEMESEEE [NSs3 (residues 234-255 of RVFV NSs)] was run?
The Kd was over 100 µM.

And the “stoichiometry N” value [2]?
The value was 1.

What about the Kd [3] of the same binder?
The Kd was 16 µM.

Which results are given for DVEMESEEESDDDGFVEVD [NSs4 (residues 247-265 of RVFV NSs)]?
stoichiometry N [4]: 1; stoichiometry N [5]: 1; Kd [6]: 0.6 µM; Kd [7]: 0.49 µM
